Laboratory results from the supplement of paper PMC12042874.
± gives the uncertainty stated by the source.

Assay: amyloid nucleation score (Sup35N fusion, yeast selection) (log enrichment); library NNK1; higher = more nucleation; inactive = no reads after selection
Procedure, shortened: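 Growth for 7 days at 30°C on medium lacking adenine and uracil followed a 24-hour induction with 100 μM copper sulfate of psi-negative yeast expressing peptides of 20 random codons fused to Sup35N. Input and output plasmid inserts were sequenced with Illumina, and sequences with under 100 input reads were excluded. Nucleation score is the DiMSum log enrichment of output over input reads, centred on the mode score of non-aggregating sequences.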

Row | Substance | amyloid nucleation score
1 | FRRYLWFRDRPGFCCFRLMQ | -0.46 ± 1.5
2 | FRSGFSLKARSVQMCDRF | 1.26 ± 0.42
3 | FRSSFGMTHYWEWRASSGRN | 0.882 ± 0.2
4 | FRVGYFAHSCRYVRSGRHMV | 0.401 ± 0.26
5 | FRVLNCVSYVFFQRHFRRCG | -0.974 ± 0.88
6 | FRVLWDYCVSSTVRRVTSLG | inactive
7 | FRVSSFWYWYVHLQGYYGTV | 1.01 ± 0.8
8 | FRYIYMMDMSSYQYVKRGSS | inactive
9 | FRYLVKYRVLH | 0.14 ± 0.44
10 | FRYVDALHDRSSYIQIGKRI | -0.423 ± 1.5
11 | FSDQTFSDLGMIEFRGFLWS | 0.343 ± 0.39
12 | FSDSKLILRRRNPW | -1.56 ± 1.4
13 | FSFISKIIESCYGDFLVGDA | -1.21 ± 0.61
14 | FSGHNC | 0.299 ± 0.35
15 | FSKCSFT | -0.169 ± 0.69
16 | FSLDMSTCVLENFVLDTFQH | -2.21 ± 2.7
17 | FSLLYV | 0.321 ± 0.67
18 | FSMGQQMFVLVLSCFLVLWC | 0.832 ± 0.65
19 | FSMGSVWTEERQLCWVPMVW | 1.11 ± 0.94
20 | FSMLIDEELDFSAETSLRHG | 0.637 ± 0.59
21 | FSNARWASRSLKSARMACVA | 0.554 ± 0.81
22 | FSNDRCGFVAR | 0.149 ± 0.26
23 | FSNIWMSTMVPSRVRKARCV | 0.05 ± 0.75
24 | FSNNLHLWAITSVLNIQTSN | 6.245 ± 0.053
25 | FSPLCKPLNSWYNQVKYRRH | 0.131 ± 0.84
26 | FSQRMGICYNVREFCNEFRC | 1.47 ± 0.14

Row | Substance | amyloid nucleation score
27 | FSRCPHQALSTECFPFFGS | -0.122 ± 1.4
28 | FSRSTQVSER | 1.38 ± 0.61
29 | FSSIVSGTLAI | inactive
30 | FSSLMLLTGEYSLSIWCKRS | 1 ± 0.8
31 | FSSLWDGLLY | 1.16 ± 0.69
32 | FSVAGSE | inactive
33 | FSVRHLSVSVLRMGTHLLDA | -0.746 ± 0.61
34 | FTARTGALGEVVWSFSLGLG | 0.316 ± 0.45
35 | FTGNLSGDCIYYFLCVVLSM | 0.47 ± 0.65
36 | FTLGVFSL | 0.017 ± 0.22
37 | FTLLAFGCNSENGG | -0.462 ± 0.6
38 | FTLRSDVAQQVIDDMGAVGS | -1.11 ± 1.5
39 | FTLYYFLSC | 0.406 ± 0.56
40 | FTRKLPSFVLL | 0.392 ± 0.61
41 | FTRTLMLMIRACCWHRFQLT | 0.008 ± 0.91
42 | FTSLNVRKLRGACRTTSSHG | -0.077 ± 0.61
43 | FTVSRPIMYIVYNCLHSVCV | 4.61 ± 0.049
44 | FTWMRYQKHEGHFI | -0.447 ± 1.2
45 | FVAASNYQAIPYCYRMIYVS | -0.102 ± 0.4
46 | FVATNPVL | 0.588 ± 0.42
47 | FVCRLATNYH | inactive
48 | FVECSERRGSKGSLYIDEVS | -0.629 ± 0.73
49 | FVEVMLIVNFTGLGVV | 0.576 ± 0.16
50 | FVGCRHHFGPCTNRCTK | 0.087 ± 0.9
51 | FVLRRLALQ | -0.992 ± 0.39
52 | FVPIDLGNGK | 0.564 ± 0.51

Row | Substance | amyloid nucleation score
53 | FVRAIMARVGFTFV | 0.569 ± 0.47
54 | FVRVANMVAWYNASRRLR | inactive
55 | FVTWH | inactive
56 | FVYHWRSVKGNLVWRCGSMD | 0.95 ± 0.63
57 | FWGFVGTVMLLKCVFHGVSA | 0.628 ± 0.63
58 | FWIFRVLSINANTELSWDIV | -0.631 ± 0.32
59 | FWTRCVFLLRGNSMWESCRG | -0.385 ± 0.9
60 | FWVGP | -0.217 ± 0.51
61 | FYEIY | 0.021 ± 0.93
62 | FYFRPNDQSWYVTRLFLSPA | 0.491 ± 0.93
63 | FYHFALFGVCARVPSDLACV | inactive
64 | FYIFCDDFTGCS | 1.84 ± 0.11
65 | FYISNMM | -1.35 ± 0.74
66 | FYLFVMKDASILYLVCSFSF | -0.46 ± 0.4
67 | FYLHNICVRR | -0.249 ± 0.52
68 | FYQYVKCVIVPSVDALGVFS | 0.931 ± 0.2
69 | FYRFLQPMS | -0.809 ± 0.88
70 | FYRQFHHLGEDPLH | -0.583 ± 0.53
71 | FYVGDVITHHWEAELNYSDV | -0.573 ± 1.7
72 | GACECDGYVTWCLRGIFGAK | -1.41 ± 0.94
73 | GACHLGDDYFRSSVVVTKSA | 0.232 ± 0.39
74 | GAGHGELDKWNPSDGPQLLW | -0.096 ± 0.77
75 | GAQATFEVHCLERTVWVYR | -0.691 ± 1.4
76 | GASAEEIYCQP | -0.513 ± 0.34
77 | GASRVTNYRELLMASANHDG | -0.413 ± 0.45
78 | GAVCLGQIMCSRVPRDVNVK | -0.547 ± 0.49

Row | Substance | amyloid nucleation score
79 | GAVPDPKVVGMGFQMGAVNS | 0.877 ± 0.7
80 | GDCTLVMLINE | 0.011 ± 0.28
81 | GDFLIPRARDQFYRFSGFND | 0.863 ± 0.46
82 | GDFSGSDVHLSFLF | 0.541 ± 0.4
83 | GDHFPEDGYSLEIADR | -0.737 ± 1.2
84 | GDIFSVQQPSNHQLETLKYS | inactive
85 | GDQSM | 0.262 ± 0.31
86 | GEDVFVRSNELRN | 0.338 ± 0.38
87 | GEIEHHLRYVQCYFRRAVRL | 0.319 ± 0.33
88 | GEIGNIPLMKRRTEWQFVVA | 0.25 ± 0.47
89 | GEKCGSVPGHQLGTDILSRA | 0.819 ± 0.67
90 | GERDACYPKSLD | -1.06 ± 2.4
91 | GESHPFNVFRYCL | 1.42 ± 0.14
92 | GFAFSNVCIVAYYRYFSSRR | 3.26 ± 0.15
93 | GFARLLLRRVHRAIISHFRF | -0.617 ± 0.45
94 | GFFDSCLEMFTLSTYFCTFY | 2.86 ± 0.096
95 | GFFLI | -0.007 ± 0.21
96 | GFFPGHHSFLEATSLVSSLF | 1.4 ± 0.63
97 | GFLDVALTLSWANHRGDSSV | 3.04 ± 0.13
98 | GFNLSRTAMMICFGYFTA | 6.61 ± 0.073
99 | GFNMLC | 0.224 ± 0.5
100 | GFRFW | 2.96 ± 0.11
101 | GFRYEPNWSLSFPGV | 0.214 ± 0.41
102 | GFSNLNSYD | -0.55 ± 0.3
103 | GFYFSYSWVRRSRNSKSMAS | 0.418 ± 1
104 | GFYIDDYES | -1.39 ± 2.7

Row | Substance | amyloid nucleation score
105 | GGFAILNAREEHWGLKGSSM | -0.491 ± 0.55
106 | GGGEATLREFFKECGK | -0.603 ± 0.35
107 | GGGQAELEGR | 0.365 ± 0.45
108 | GGIRRHTHGI | -0.746 ± 1.4
109 | GGPQLKVCSFGLFWWFIEVV | inactive
110 | GGRLRW | 0.452 ± 0.48
111 | GGVFMMSSDSTQIIRYVKSR | 0.752 ± 0.56
112 | GGVLLRCRTSDNTGNQRVW | inactive
113 | GHLCSLSSGFN | 0.69 ± 0.24
114 | GHSLHLWVTTKS | 0.561 ± 0.66
115 | GHVRFSMHRRSDVCKQGSND | 0.91 ± 0.47
116 | GHWPQRCIMVVECYQRQAHK | 0.115 ± 0.65
117 | GHWSYYKVTSYYI | inactive
118 | GIAVGS | 0.413 ± 0.49
119 | GICELQRPTYVTLVEVFMVD | -0.49 ± 0.41
120 | GICHSPGWCC | 2.69 ± 0.14
121 | GIDVCWSFFILYVWERVIRG | 0.337 ± 0.36
122 | GIENLRTDV | 1.34 ± 0.37
123 | GIGAVSAC | 0.317 ± 0.56
124 | GIHNFEGGMTLWLLLFSQRS | 0.24 ± 1.2
125 | GIIRKVLAEANLNCKVSSYR | -0.488 ± 0.61
126 | GILFALSIVRDDYFC | -0.215 ± 0.19
127 | GIPCT | 0.38 ± 0.72
128 | GIRFLWPFLIPRLHKVIARR | inactive
129 | GIRVFPMCNFG | inactive
130 | GISSSTLTFRTMWEDRCVEG | 0.825 ± 0.66

Row | Substance | amyloid nucleation score
131 | GIVCYKCSVDFLLSWLSVVF | -0.092 ± 0.31
132 | GIVFIIQYS | inactive
133 | GKCMYRVCYSEA | -0.056 ± 0.46
134 | GKEDRIG | -0.093 ± 0.81
135 | GKFRYHGRAMRHSARALIYF | 0.451 ± 0.42
136 | GKFSDSHIVA | 0.308 ± 0.46
137 | GKVIQHG | -0.579 ± 1.7
138 | GKYKTFKNNITP | -0.416 ± 1.2
139 | GLASVRILGRMQV | -0.106 ± 0.36
140 | GLDKALTFKALCDLLRNSLC | 0.598 ± 1.2
141 | GLFKICYLVT | 0.408 ± 0.34
142 | GLFMGWYDRMP | 0.265 ± 0.6
143 | GLGVIVVCPVCGSKGVCGKW | -0.914 ± 1.4
144 | GLGYPSVFSEHCVGLRDCEL | -0.189 ± 1.7
145 | GLIYTTSLMRVLNSVVGL | inactive
146 | GLKRWSIGFRDGERQSCRVR | -0.523 ± 0.35
147 | GLLSK | -0.062 ± 0.56
148 | GLNLNRFWRLGATFILYLQT | 1.19 ± 0.54
149 | GLRLNITNSRGRPRETWRGR | 2.33 ± 0.24
150 | GLRVPPHDVLMSIARLDVSK | inactive
151 | GLSQWGTVRCHTAASIYLAT | 0.316 ± 0.58
152 | GLTCMHPWWLSHAEKRLVEL | 1.05 ± 0.49
153 | GLYFGLQLTGVS | 0.04 ± 0.35
154 | GMAWSRSLRVGHSGIMGRAV | 0.189 ± 0.22
155 | GMFYVLVGENCCFYALVWTL | -0.223 ± 0.23
156 | GMHLVKQVQGYRVRAEYSLF | 0.98 ± 0.92

Row | Substance | amyloid nucleation score
157 | GMMHFGCGFSFWWNNFRQWW | 2.49 ± 0.19
158 | GMSALYSGDVL | -0.118 ± 0.57
159 | GMSIE | -0.314 ± 0.8
160 | GMTLMVAEFGLIRLVNTLAI | 0.785 ± 0.49
161 | GMVFF | 0.643 ± 0.58
162 | GMWSTNANTPILVILRGVVM | 0.71 ± 1.1
163 | GNALRMVWERTQGTLPEYRR | 0.219 ± 0.59
164 | GNFMVW | -0.403 ± 0.58
165 | GNMSCPFVQRREVLLC | -0.383 ± 1.4
166 | GNVGYLGVSRYLHLC | -0.073 ± 0.41
167 | GNVRYAPYVVGIKLIRANSC | -0.381 ± 0.81
168 | GPFASVFCAYGRVGVM | 0.354 ± 0.68
169 | GPFHRWNL | -0.129 ± 1.6
170 | GPRAN | -1.55 ± 2.7
171 | GPSLWLKTMVKGYAKTGLYR | -0.219 ± 0.32
172 | GPSRRTLRGNFNHLVTYWCP | 0.003 ± 0.46
173 | GPTRLDAEG | -0.54 ± 0.87
174 | GRARVSIRSWSRSWSVGRVL | 0.309 ± 0.63
175 | GRDSIRCLNTTEASKLYGGL | 0.609 ± 0.64
176 | GREANILFLYLVLRTFFRMG | inactive
